Target: IQ motif containing GTPase activating protein 1 (IQGAP1), endogenous in differentiated HL-60 cells (human (endogenous in HL-60)) (UniProt P46940)
Assay: co-IP; rabbit anti-IQGAP1 antibody and Protein A/G agarose; lysates of differentiated HL-60 cells expressing CXCR2, vehicle or 100 ng/ml CXCL8 for 1 or 5 min; western blot for Cdc42, densitometry

Cdc42, endogenous in differentiated HL-60 cells expressing CXCR2, P60953 1-191 (natural protein; other documents disagree on this pair), sequence (P60953 whole entry): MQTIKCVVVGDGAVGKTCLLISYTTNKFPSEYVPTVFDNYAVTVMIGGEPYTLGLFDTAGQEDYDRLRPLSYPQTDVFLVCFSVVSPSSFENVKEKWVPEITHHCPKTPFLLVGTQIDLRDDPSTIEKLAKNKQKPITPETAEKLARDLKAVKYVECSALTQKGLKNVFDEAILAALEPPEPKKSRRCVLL
IQ motif containing GTPase activating protein 1 (IQGAP1), endogenous in differentiated HL-60 cells (human (endogenous in HL-60)), sequence (P46940 whole entry): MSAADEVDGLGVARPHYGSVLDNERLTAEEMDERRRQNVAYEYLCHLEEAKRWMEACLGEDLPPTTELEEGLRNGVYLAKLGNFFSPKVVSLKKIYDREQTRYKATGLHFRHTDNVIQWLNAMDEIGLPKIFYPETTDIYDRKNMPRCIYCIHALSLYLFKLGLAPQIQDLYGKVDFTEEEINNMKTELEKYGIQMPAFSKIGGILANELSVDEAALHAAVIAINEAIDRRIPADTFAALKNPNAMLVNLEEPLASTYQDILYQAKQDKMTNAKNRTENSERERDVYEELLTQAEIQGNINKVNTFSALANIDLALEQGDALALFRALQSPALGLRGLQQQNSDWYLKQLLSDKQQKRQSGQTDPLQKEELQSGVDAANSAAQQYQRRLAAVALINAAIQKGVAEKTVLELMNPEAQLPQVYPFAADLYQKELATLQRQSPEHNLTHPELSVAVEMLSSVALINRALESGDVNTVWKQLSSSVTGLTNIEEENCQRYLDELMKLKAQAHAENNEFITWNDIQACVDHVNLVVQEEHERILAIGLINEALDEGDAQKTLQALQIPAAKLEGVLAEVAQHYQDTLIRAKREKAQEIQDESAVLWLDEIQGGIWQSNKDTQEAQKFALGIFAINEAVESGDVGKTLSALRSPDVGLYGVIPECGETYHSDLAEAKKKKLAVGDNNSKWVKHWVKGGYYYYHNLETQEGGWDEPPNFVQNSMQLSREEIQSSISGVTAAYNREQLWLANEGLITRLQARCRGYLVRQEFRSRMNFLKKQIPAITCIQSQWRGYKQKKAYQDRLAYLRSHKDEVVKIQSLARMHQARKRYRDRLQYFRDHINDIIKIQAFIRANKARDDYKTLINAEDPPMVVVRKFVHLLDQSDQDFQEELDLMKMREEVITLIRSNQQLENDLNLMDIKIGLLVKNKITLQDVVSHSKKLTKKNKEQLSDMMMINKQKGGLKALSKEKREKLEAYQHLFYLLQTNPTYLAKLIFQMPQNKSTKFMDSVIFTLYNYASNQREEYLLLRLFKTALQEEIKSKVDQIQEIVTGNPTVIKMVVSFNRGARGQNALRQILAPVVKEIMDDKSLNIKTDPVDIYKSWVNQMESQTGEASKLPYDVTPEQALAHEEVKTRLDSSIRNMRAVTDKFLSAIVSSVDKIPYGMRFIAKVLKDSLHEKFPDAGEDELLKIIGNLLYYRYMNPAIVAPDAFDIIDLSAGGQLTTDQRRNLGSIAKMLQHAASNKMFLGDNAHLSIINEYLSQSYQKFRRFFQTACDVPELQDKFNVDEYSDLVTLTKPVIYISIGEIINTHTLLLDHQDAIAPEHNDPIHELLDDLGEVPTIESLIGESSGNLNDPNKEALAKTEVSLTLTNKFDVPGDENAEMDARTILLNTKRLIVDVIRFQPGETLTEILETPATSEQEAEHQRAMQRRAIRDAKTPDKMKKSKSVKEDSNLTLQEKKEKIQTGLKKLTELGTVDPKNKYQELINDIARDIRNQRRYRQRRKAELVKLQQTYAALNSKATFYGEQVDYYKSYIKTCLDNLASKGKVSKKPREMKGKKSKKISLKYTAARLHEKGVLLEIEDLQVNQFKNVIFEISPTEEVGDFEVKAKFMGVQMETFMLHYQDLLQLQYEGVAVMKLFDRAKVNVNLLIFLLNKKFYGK

- fold increase in co-immunoprecipitated Cdc42 after 1 min of CXCL8 over untreated cells: 1.36 fold
Substance: Cdc42, endogenous in differentiated HL-60 cells expressing CXCR2, P60953 1-191 (natural protein; other documents disagree on this pair)
